Here are results for 36 sequences from the supplement of paper PMC10567573.

± gives the standard deviation.

This data set in a line: protein stability index of a GFP-peptide fusion (GPS, HEK-293T) (PSI 1-6); higher = more stable. As to conditions: c terminus: a fixed tail appended.
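Note: 24-mer peptide tiles fused after GFP, lentivirally expressed, FACS-sorted into six equal bins by GFP/DsRed ratio, decoded by Illumina sequencing, PSI is the read-weighted mean bin number.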

Turning to EIIKVTEQLIEAISNGDFESYTKM [CAMK2A], the protein stability index is, setting by setting: (treatment: DMSO) 2.27 ± 0.53; (treatment: MLN4924 1 uM, 8 h) 1.91 ± 0.61.
The matching figures for EKDQEQVVMNLDSRLLIFPLYICC [GMCL1]: 2.74 ± 0.75 and 2.74 ± 0.67.
Take EKKDLKLEPPEEEIIEGNTKSHIM [NECAB1]: the protein stability index (treatment: DMSO) amounted to 5.46 ± 0.17 and the protein stability index (treatment: MLN4924 1 uM, 8 h) was found to be 5.43 ± 0.14.
Consider EKNKHIFPASRWEPYDPEKKWDKY [FAM50A], for which the protein stability index by setting is: (treatment: DMSO) 3.52 ± 0.2; (treatment: MLN4924 1 uM, 8 h) 3.6 ± 0.14.
EKRLEGQEEEEDNRDSSMKLSFRA [CHGA]: the protein stability index was determined as 5.1 ± 0.75 (treatment: DMSO) and 5.19 ± 0.38 (treatment: MLN4924 1 uM, 8 h).
For EKRSRGQVLFDKVCEHLNLLEKDY [EPB41L3], in that order: 2.87 ± 0.46 and 3.01 ± 0.62.
Turning to EKSVLKEVSHPFLIRLFWTWHDER [PRKX], the protein stability index (treatment: DMSO) worked out at 2.56 ± 0.29 and the protein stability index (treatment: MLN4924 1 uM, 8 h) was 2 ± 0.32.
For the sequence ELEKIGSGEFGSVFKCVKRLDGCI [WEE1], the protein stability index is, setting by setting: (treatment: DMSO) 2.29 ± 0.25; (treatment: MLN4924 1 uM, 8 h) 2.35 ± 0.24.
As to ELGGKNPAIIFEDANLDECIPATV [ALDH8A1], the protein stability index by setting is: (treatment: DMSO) 4.54 ± 0.28; (treatment: MLN4924 1 uM, 8 h) 4.72 ± 0.27.
As to ELKRRVAEELALEQAKKESEDQKR [CHCHD3], the protein stability index is 4.14 ± 0.32 (treatment: DMSO) and 4.37 ± 0.082 (treatment: MLN4924 1 uM, 8 h).
On to ELLLFAVGFIMAGTPMALIVISYI [OR3A1], for which the protein stability index was found to be 2.56 ± 0.033 (treatment: DMSO) and 3.09 ± 0.28 (treatment: MLN4924 1 uM, 8 h).
Consider ELNAIMNKNSTDVKGCSMYVALFP [DCTD], for which the protein stability index reads like this: (treatment: DMSO) 2.71 ± 0.26; (treatment: MLN4924 1 uM, 8 h) 2.35 ± 0.71.
As to ELQQELSLKDQERVAEVSRVRVEL [LRRC45], the protein stability index reads like this: (treatment: DMSO) 3.5 ± 0.17; (treatment: MLN4924 1 uM, 8 h) 3.78 ± 0.24.
With ELSEEGAEGRVVGRKDITSILRAP [MOSPD3], the protein stability index (treatment: DMSO) turned out to be 4.82 ± 0.11 and the protein stability index (treatment: MLN4924 1 uM, 8 h) was determined as 4.78 ± 0.18.
ENAAFKDVALVLTVLLEEETLEAS [TOR1AIP2]: the protein stability index is, setting by setting: (treatment: DMSO) 2.31 ± 0.33; (treatment: MLN4924 1 uM, 8 h) 2.4 ± 0.34.
Take ENAELESRIQEWYEFQIPYICPDY [KRT36]: the protein stability index runs as follows: (treatment: DMSO) 2.77 ± 0.46; (treatment: MLN4924 1 uM, 8 h) 2.9 ± 0.44.
The matching figures for ENILADNSVNDQTKILVVNAAYFV [SERPINB5]: 2.25 ± 0.21 and 2.34 ± 0.17.
Turning to ENSICVGFKRDYYLIRVDGKGSIK [VPS39], the protein stability index reads like this: (treatment: DMSO) 2.16 ± 0.54; (treatment: MLN4924 1 uM, 8 h) 2.35 ± 0.37.
For ENYLNRCMDQERLRRESTSQKEMD [FCHO1], in that order: 4.24 ± 0.28 and 4.56 ± 0.3.
In turn, EPGGPGWLPESDCETVTCCLFSER [SMAD6] registered a protein stability index (treatment: DMSO) of 3.96 ± 0.35 and a protein stability index (treatment: MLN4924 1 uM, 8 h) of 4.16 ± 0.42.
Turning to EQEDPADYCKGGYHPVKIGDLFNG [SRPK2], the protein stability index reads like this: (treatment: DMSO) 3.9 ± 0.32; (treatment: MLN4924 1 uM, 8 h) 3.98 ± 0.47.
EQLRREKIDLENTLEQEQEALVNR [CCDC6]: the protein stability index came out at 5.2 ± 0.27 (treatment: DMSO) and 5.42 ± 0.1 (treatment: MLN4924 1 uM, 8 h).
EQLSVLASCLQELFKAHFRGEVLP [INTS3] had a protein stability index (treatment: DMSO) of 2.52 ± 0.42 and a protein stability index (treatment: MLN4924 1 uM, 8 h) of 2.5 ± 1.1.
The matching figures for ERGLKKIRLGIEGYPTYKEKVKKR [BTBD10]: 3.59 ± 0.3 and 3.66 ± 0.33.
ERKGWLAPSPGVKEQAIWKHPQPA [PKD2L1] came in with a protein stability index (treatment: DMSO) of 3.52 ± 0.21 and a protein stability index (treatment: MLN4924 1 uM, 8 h) of 3.73 ± 0.41.
The matching figures for ERLERAVSDRLAPGAPRGNPPKAS [MYCL]: 4.84 ± 0.44 and 5.23 ± 0.26.
The matching figures for ERMPPSGAARSFQEVTEPAVVAVD [PXN]: 4.95 ± 0.17 and 5.29 ± 0.31.
For the sequence ERRQTLNLISLLALRVLAEQNIIP [TENT5C], the protein stability index turned out to be 2.26 ± 0.88 (treatment: DMSO) and 2.15 ± 0.24 (treatment: MLN4924 1 uM, 8 h).
In the case of ERSMSENAVRQNGQLVRNDSLWHR [MFF], the protein stability index (treatment: DMSO) amounted to 3.84 ± 0.42 and the protein stability index (treatment: MLN4924 1 uM, 8 h) was found to be 3.69 ± 0.4.
Consider ERYDPNIDQWSMLGDMQTAREGAG [KLHL12], for which the protein stability index (treatment: DMSO) came out at 4.2 ± 0.25 and the protein stability index (treatment: MLN4924 1 uM, 8 h) is 4.33 ± 0.19.
For the sequence ESESPQSHRAAGSGVSDYDYLDLD [TRIM9], the protein stability index (treatment: DMSO) was determined as 5.5 ± 0.19 and the protein stability index (treatment: MLN4924 1 uM, 8 h) was found to be 5.35 ± 0.2.
In the case of ESGLGHFSLRVHTGCHKKLGPEAR, the protein stability index by setting is: (treatment: DMSO) 3.24 ± 0.46; (treatment: MLN4924 1 uM, 8 h) 3.32 ± 0.24.
With ESIDFDQGELADQDVDPVHNLIEQ [FBXO33], the protein stability index amounted to 5.51 ± 0.16 (treatment: DMSO) and 5.22 ± 0.26 (treatment: MLN4924 1 uM, 8 h).
The matching figures for ESPRWLYSQGRLSEAEEALYLIAK [SLC22A15]: 2.75 ± 0.21 and 2.66 ± 0.45.
For ESSAKSKINVNEIFYDLVRQINRK [RAP1B], in that order: 1.92 ± 0.38 and 1.96 ± 0.25.
For ETKGQINNSIKDLTDGHFENILAD [SERPINB5], in that order: 4.84 ± 0.42 and 4.9 ± 0.32.
